{"source": "patent US8785391B2", "about": "“Compound and method for treatment of alzheimer's disease and familial dementia” (Alphabeta AB, priority 2010, dated 2014)", "key": {"Aβ1-40": {"molecular_target": "T1, Aβ1-40 (Homo sapiens, UniProt P05067)", "T1 construct": "made in house; host or cells: E. coli", "T1 sequence (P05067 672-711)": "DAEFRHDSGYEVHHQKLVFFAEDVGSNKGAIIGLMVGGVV", "type": "biochemical", "excerpt": "(§1) Aβ1-40 (SEQ ID NO: 11) and Aβ1-42 (SEQ ID NO: 12) were expressed in E. coli from synthetic genes and purified in batch format using ion exchange and size exclusion steps as described in Walsh et al., FEBS J. 2009, 276, 1266-1281, which results in highly pure monomeric peptide. Purified peptide was divided into 20-30 identical aliquots and frozen. Monomer was then isolated by gel filtration of an aliquot of purified peptide just prior to setting up each of the experiments listed below to remove traces of aggregate formed during freezing and thawing and to exchange buffer to the one used in the respective experiment. Monomer was collected in low-bind Ep-tubes ([…]) on ice, and the concentration was determined by absorbance or amino acid analysis after acid hydrolysis. The monomer was used as is or diluted to the desired concentration for the respective experiment. Bri2(90-236) (SEQ ID NO: 2) was expressed and purified as described in Example 1. Aggregation kinetics were studied by recording the Thioflavin T (ThT) fluorescence intensity as a function of time in a plate reader (FluoStar Omega from BMG Labtech, Offenberg, Germany). The fluorescence was recorded using bottom optics in half-area 96-well PEG-coated black polystyrene plates with clear bottom (Corning 3881) using 440 nm excitation filter and 480 nm emission filter. Aβ monomer was isolated by gel filtration as above in 20 mM Na-phosphate, 200 μM EDTA, 0.02% NaN3 (at pH 7.4 in the case of Aβ1-40 and at pH 8.0 for Aβ1-42) and diluted to 6 or 8 μM in the case of Aβ1-40 and 3 μM in the case of Aβ1-42 in the same buffer and supplemented with 20 μM ThT from a 2 mM stock. To each well in the 96-well plate was first added either 10 μl buffer (20 mM Tris/HCl pH 7.4) or 10 μl of Bri2(90-236) protein or control protein at ten times the desired final concentration in 20 mM Tris/HCl pH 7.4. To each well was then added 90 μl of the ice-cold Aβ monomer solution, and the plate was immediately placed in the plate reader at 37° C., with fluorescence read every 6 minutes with continuous shaking at 100 rpm between readings. Aβ1-40 was studied alone or with Bri2(90-236) at a concentration ranging from 60 nM to 6 μM. Aβ1-42 was studied alone or with Bri2(90-236) at a concentration ranging from 20 nM to 6 μM."}, "Aβ1-42": {"molecular_target": "T2, Aβ1-42 (Homo sapiens, UniProt P05067)", "T2 construct": "made in house; host or cells: E. coli", "T2 sequence (P05067 672-713)": "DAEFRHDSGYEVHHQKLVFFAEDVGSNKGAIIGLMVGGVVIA", "assay": "ThT aggregation kinetics of Aβ1-42 (Example 4)", "type": "biochemical", "excerpt": "as §1, with “Aβ1-40 was studied alone or with Bri2(90-236) at a concentration ranging from 60 nM to 6 μM. Aβ1-42 was studied alone or with Bri2(90-236) at a concentration ranging from 20 nM to 6 μM.” left out"}}, "note": "Read-outs that look alike come from different tables or passages of the source."}
{"molecule": "Bri2(90-236): recombinant protein of residues 90-236 of human Bri2 (SEQ ID NO: 2), encompassing the Brichos domain, expressed in E. coli (protein, listed as Homo sapiens) GIKYIKDDVILNEPSADAPAALYQTIEENIKIFEEEEVEFISVPVPEFADSDPANIVHDFNKKLTAYLDLNLDKCYVIPLNTSIVMPPRNLLELLINIKAGTYLPQSYLIHEHMVITDRIENIDHLGFFIYRLCHDKETYKLQRRET", "values": [{"measurement": "prolongation of half time of Aβ1-40 aggregation", "setting": "Aβ1-40; 170 nM Bri2(90-236), relative to 6 μM Aβ1-40 alone", "result": "approximately 4.5 times"}, {"measurement": "lag time of Aβ1-40 aggregation", "setting": "Aβ1-40; 0.01 or 0.03 molar equivalents of Bri2(90-236), far below equimolar", "result": "increases extensively"}, {"measurement": "lag time of Aβ1-40 aggregation", "setting": "Aβ1-40; above a molar ratio of 0.1 (1 Bri2(90-236) per 10 Aβ1-40 molecules)", "result": "exceeds one week"}, {"measurement": "elongation rate of Aβ1-40 aggregation", "setting": "Aβ1-40; in the presence of Bri2(90-236)", "result": "largely unaffected"}, {"measurement": "lag time of Aβ1-42 aggregation", "setting": "Aβ1-42; 3 μM Aβ1-42, molar ratio of 0.1 (1 Bri2(90-236) per 10 Aβ1-42), compared to the undisturbed case", "result": "doubled"}, {"measurement": "half time of Aβ1-42 aggregation", "setting": "Aβ1-42; 3 μM Aβ1-42, molar ratio of 0.1, compared to the undisturbed case", "result": "doubled"}]}
